Like-named read-outs stand apart in the source and are kept apart here.
Assays:
[1] = test system: cUNG (Atlantic cod uracil-DNA glycosylase); assay: Product inhibition of cUNG with free uracil; type: biochemical, Atlantic cod (Gadus morhua)
Method: Different concentrations of uracil was added to the assay mixture and the assay performed as described in material and methods. Uracil-DNA glycosylase activity was measured in a final volume of 20 μl, containing 70 mM Tris/HCl, 10 mM NaCl, 1 mM EDTA, 100 μg/ml BSA and 230 ng nick-substrate or 71 ng PCR-substrate. The reaction mixture was incubated 10 min at 37° C., and terminated with the addition of 20 μl of ice cold single stranded calf thymus DNA (1 mg/ml) and 500 μl 10% (w/v) TCA. Samples were incubated on ice for 15 min, and centrifuged at 16,000 g for 10 min. Supernatants with acid soluble ^3H-uracil were analyzed using a liquid scintillation counter. Activity measurements using PCR-substrate were performed with 6.65×10^−4 U of purified cUNG. Various concentrations of uracil (0, 1, 2 and 5 mM) or Ugi-inhibitor (1.25×10^3 U to 2.00×10^2 U) were added to the assay mixtures (on ice). Activity was then measured as described under standard assay conditions.

[2] = Effect of temperature on stability (half-life of UNG activity); type: physicochemical
Method: Enzyme (1 U) were incubated at 50° C., 37° C., 25° C. and 4° C., and 5 μl aliquotes were transferred to the assay mixture after different time intervals, and standard assays were performed as described in material and methods. Half-lifes were determined to 0.5 min (50° C.), 20 min (37° C.), 60 min (25° C.) and 2 h (4° C.) for cUNG and 8 min (50° C.) 30 min (37° C.), 150 min (25° C.) and 2.6 h (4° C.) for rhUNG.
(§1) Assays were done in a volume of 20 μl as described in standard assay using the PCR generated substrate. The assay mixtures were as described in standard assay conditions and were adjusted to pH 8.0 for all temperatures. The temperature range used was 5° C. to 60° C. The activity was measured in a sequential manner with 15 min intervals, between each temperature. The enzymes used were diluted in standard dilution buffer (5 mM Tris/HCl, 10 mM NaCl, 1% (v/v) glycerol, pH 8.0) and placed on ice.
Temperature: UNG (0.01 U) was preincubated (in a total volume of 75 μl) in 10 mM Tris/HCl, 50 mM NaCl, 1 mM EDTA, 1% glycerol, pH 8.0 (adjusted at each temperature).

[3] = test system: PCR generated uracil-containing DNA substrate; assay: Determination of temperature optimum / temperature profile; type: biochemical
Method: Due to prolonged incubation of the enzyme sample on ice during the experiment, activity is corrected with respect to the stability of the enzyme, as described in material and methods.
Enzyme activity was measured as described in material and methods. The percent UNG activity is set relative to the highest value for cUNG (45° C.) and rhUNG (50° C.) respectively. Due to prolonged incubation of the enzyme samples on ice during the experiment, activity is corrected with respect to the stability of the enzymes, as described in material and methods.
as §1

[4] = test system: PCR generated uracil-containing DNA substrate; settings: literature value (64); cited from earlier work
[5] = Effect of pH on stability (residual UNG activity); type: physicochemical
Method: In the different pH-buffer, 1 U of cUNG (Δ) or rhUNG (□) were incubated for 10 minutes at 37° C. Then 5 μl aliquotes were transfered to the assay mixture, and residual activity was measured using standard assay conditions as described in materials and methods. One hundred percent activity was measured directly from a sample diluted at pH 8.0 without any incubation step.
pH: UNG (0.01 U) was preincubated (in a total volume of 75 μl) for 10 min at 37° in buffers containing 10 mM buffer, 10 mM NaCl, 1 mM EDTA, 1% glycerol, with pH ranging from 9.5-6.5 with 0.5 pH unit intervals using diethanolamine/HCl (9.5-8.5), Tris/HCl (8.5-7.5), MOPS/NaOH (7.5-6.5) and MES/NaOH (6.5-5.5) as buffer components. Aliquots of 5 μl were transferred to the assay mixtures and residual activity was measured using standard assay conditions.

[6] = cited from earlier work; for half-life: literature (45)
[7] = test system: cUNG (Atlantic cod uracil-DNA glycosylase); assay: Inhibition of cUNG with uracil-DNA glycosylase inhibitor (Ugi); type: biochemical, Atlantic cod (Gadus morhua); settings: 6.65×10^−4 U cUNG, 1.25×10^3 U to 2.00×10^2 U Ugi
Method: 6.65×10^−4 U of cUNG was incubated with 1.25×10^3 U to 2.00×10^2 U of Ugi using standard assay conditions, as described in material and methods. One Unit of Ugi inhibit one Unit of UNG-activity, where the UNG-activty is defined as releasing 60 pmol of uracil per min at 37° C.
Uracil-DNA glycosylase activity was measured in a final volume of 20 μl, containing 70 mM Tris/HCl, 10 mM NaCl, 1 mM EDTA, 100 μg/ml BSA and 230 ng nick-substrate or 71 ng PCR-substrate. The reaction mixture was incubated 10 min at 37° C., and terminated with the addition of 20 μl of ice cold single stranded calf thymus DNA (1 mg/ml) and 500 μl 10% (w/v) TCA. Samples were incubated on ice for 15 min, and centrifuged at 16,000 g for 10 min. Supernatants with acid soluble ^3H-uracil were analyzed using a liquid scintillation counter.
Activity measurements using PCR-substrate were performed with 6.65×10^−4 U of purified cUNG. Various concentrations of uracil (0, 1, 2 and 5 mM) or Ugi-inhibitor (1.25×10^3 U to 2.00×10^2 U) were added to the assay mixtures (on ice). Activity was then measured as described under standard assay conditions.
Target sequence in this assay (as listed by the source): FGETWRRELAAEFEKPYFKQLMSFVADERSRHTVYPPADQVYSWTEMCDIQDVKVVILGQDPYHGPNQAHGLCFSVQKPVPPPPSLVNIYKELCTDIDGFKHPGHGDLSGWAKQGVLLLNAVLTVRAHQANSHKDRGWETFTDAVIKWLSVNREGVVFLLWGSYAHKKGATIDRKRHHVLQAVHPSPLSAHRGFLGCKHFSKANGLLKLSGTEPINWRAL

For `O=c1cc[nH]c(=O)[nH]1` [uracil], the “inhibition of cUNG activity” value ([1]; 1 mM uracil in the assay mixture) was “more than 50%” and the “inhibition of cUNG activity” value ([1]; 5 mM free uracil in the assay mixture) was 78%.

B1: rhUNG: purified recombinant mesophilic human UNG (UNGΔ84) provided by Dr. Krokan (protein, UniProt P13051 85-304, looked up, fragment)
chain: LAARNVPVGFGESWKKHLSGEFGKPYFIKLMGFVAEERKHYTVYPPPHQVFTWTQMCDIKDVKVVILGQDPYHGPNQAHGLCFSVQRPVPPPPSLENIYKELSTDIEDFVHPGHGDLSGWAKQGVLLLNAVLTVRAHQANSHKERGWEQFTDAVVSWLNQNSNGLVFLLWGSYAQKKGSAIDRKRHHVLQTAHPSPLSVYRGFFGCRHFSKTNELLQKSG
B1 gave a half-life ([2]; 4° C., pH 8.0) of 156 min, a half-life ([2]; 25° C., pH 8.0) of 150 min and a half-life ([2]; 37° C., pH 8.0) of 30 min. For the same molecule, the half-life ([2]; 50° C., pH 8.0) was 8 min, the half-life ([2]; enzyme in standard dilution buffer on ice) was 156 min and the “temperature of highest activity value in temperature profile” value ([3]; FIG. 6, 5-60° C.) was 50 °C. For the same molecule, the “relative activity compared with cUNG” value ([3]; temperatures higher than 45° C.) was “higher relative activity”, the temperature optimum [4] was 45 °C and the residual activity ([5]; pH 10.0, 10 min at 37° C.) was 66%. For the same molecule, the “pH range in which most stable” value ([5]; preincubated 10 min at 37° C.) was 7.0-9.5.

B2: E. coli UNG: commercially available UNG (or UDG) from Escherichia coli used in carry-over prevention (protein, UniProt P12295 2-229, looked up)
Uracil-DNA glycosylase: ANELTWHDVLAEEKQQPYFLNTLQTVASERQSGVTIYPPQKDVFNAFRFTELGDVKVVILGQDPYHGPGQAHGLAFSVRPGIAIPPSLLNMYKELENTIPGFTRPNHGYLESWARQGVLLLNTVLTVRAGQAHSHASLGWETFTDKVISLINQHREGVVFLLWGSHAQKKGAIIDKQRHHVLKAPHPSPLSAHRGFFGCNHFVLANQWLEQRGETPIDWMPVLPAESE
For B2, the half-life ([6]; 40° C.) is listed as 27 min, the half-life ([6]; 45° C.) is listed as 8 min and the “inactivation by heat treatment / reactivation” value ([6]; literature (60), (45)) is listed as “not completely inactivated”.

B3: Ugi: Bacillus subtilis bacteriophage PBS2 UDG-inhibitor, obtained from New England Biolabs (protein)
chain: MTNLSDIIEKETGKQLVIQESILMLPEEVEEVIGNKPESDILVHTAYDESTDENVMLLTSDAPEYKPWALVIQDSNGENKIKML
With B3 the “effect of Ugi on cUNG activity” value [7] was “clearly inhibited”.
